The target in this assay is T1, IL-18 receptor (IL-18Rα/IL-18Rβ) overexpressed on HEK-Blue IL-18 cells (Homo sapiens (Human), UniProt Q13478 19-541; O95256 20-599).
T1 sequence 1: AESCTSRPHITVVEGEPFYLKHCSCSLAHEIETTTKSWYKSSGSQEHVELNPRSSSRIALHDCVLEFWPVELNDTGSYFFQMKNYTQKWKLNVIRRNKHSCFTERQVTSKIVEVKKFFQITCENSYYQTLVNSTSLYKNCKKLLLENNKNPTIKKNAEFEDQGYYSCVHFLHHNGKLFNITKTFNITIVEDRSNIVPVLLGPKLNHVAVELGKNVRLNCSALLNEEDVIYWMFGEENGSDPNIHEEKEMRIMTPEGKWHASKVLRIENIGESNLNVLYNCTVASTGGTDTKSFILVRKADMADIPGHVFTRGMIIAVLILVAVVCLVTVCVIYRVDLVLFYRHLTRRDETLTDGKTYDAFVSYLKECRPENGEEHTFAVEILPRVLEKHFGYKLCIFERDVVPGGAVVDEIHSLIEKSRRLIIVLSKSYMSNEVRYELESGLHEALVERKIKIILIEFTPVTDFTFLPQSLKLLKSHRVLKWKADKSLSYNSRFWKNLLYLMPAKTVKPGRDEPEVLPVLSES
T1 sequence 2: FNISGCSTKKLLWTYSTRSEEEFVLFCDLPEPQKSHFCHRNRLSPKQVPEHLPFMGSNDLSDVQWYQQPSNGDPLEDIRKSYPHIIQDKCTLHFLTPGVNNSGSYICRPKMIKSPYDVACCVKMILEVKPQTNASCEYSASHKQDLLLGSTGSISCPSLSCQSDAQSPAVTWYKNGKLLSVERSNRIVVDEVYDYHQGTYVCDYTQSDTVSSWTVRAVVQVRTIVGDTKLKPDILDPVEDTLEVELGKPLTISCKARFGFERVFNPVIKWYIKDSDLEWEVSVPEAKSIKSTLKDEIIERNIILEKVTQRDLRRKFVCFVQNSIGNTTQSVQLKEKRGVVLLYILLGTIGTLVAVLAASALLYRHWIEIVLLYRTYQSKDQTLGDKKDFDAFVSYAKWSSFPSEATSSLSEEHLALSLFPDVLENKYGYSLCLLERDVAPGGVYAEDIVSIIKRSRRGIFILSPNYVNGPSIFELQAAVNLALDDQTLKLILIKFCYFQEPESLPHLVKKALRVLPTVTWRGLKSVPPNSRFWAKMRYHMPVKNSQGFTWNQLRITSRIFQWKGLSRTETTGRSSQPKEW
Description: cell-based or functional assay.

B1: DGL212 (bispecific antibody)
heavy 1: QVQLVESGGGLVQAGGSLRLSCAASGRTFSKHAMGWFRQAPGKEREFVAAIDWSGGSTYYADSVKGRFTISRDNAKNTVYLQMDSLKPEDTAVYYCAADSYTDYAQLWLPELESEYDYWGQGTLVTVSSDKTHTCPPCPAPEAAGAPSVFLFPPKPKDTLMISRTPEVTCVVVDVSHEDPEVKFNWYVDGVEVHNAKTKPREEQYNSTYRVVSVLTVLHQDWLNGKEYKCKVSNKALPAPIEKTISKAKGQPREPQVCTLPPSRDELTKNQVSLSCAVKGFYPSDIAVEWESNGQPENNYKTTPPVLDSDGSFFLVSKLTVDKSRWQQGNVFSCSVMHEALHNHYTQKSLSLSPGWSHPQFEK
heavy 2: not shown
Regarding B1, the “HEK-Blue IL-18: Abs 405 at 100 nM” value stood at 1.4 Abs and the “HEK-Blue IL-18: Fold over Background” value was determined as 6.2 fold.

B2: DGL213 (bispecific antibody)
heavy 1: QVQLVESGGGLVQAGGSLRLSCAASGRTFSKHAMGWFRQAPGKEREFVAAIDWSGGSTYYADSVKGRFTISRDNAKNTVYLQMDSLKPEDTAVYYCAADSYTDYAQLWLPELESEYDYWGQGTLVTVSSDKTHTCPPCPAPEAAGAPSVFLFPPKPKDTLMISRTPEVTCVVVDVSHEDPEVKFNWYVDGVEVHNAKTKPREEQYNSTYRVVSVLTVLHQDWLNGKEYKCKVSNKALPAPIEKTISKAKGQPREPQVCTLPPSRDELTKNQVSLSCAVKGFYPSDIAVEWESNGQPENNYKTTPPVLDSDGSFFLVSKLTVDKSRWQQGNVFSCSVMHEALHNHYTQKSLSLSPGWSHPQFEK
heavy 2: QLQLVESGGGLVQAGGSLRLSCAASRSITFSHNVMGWYRQAPGKQRELVASIGSGGSTNYVDSVKGRATISRDNAKKTVYLQMNSLKPEDTAVYYCGVVVGVYRGSLGQGTLVTVSSCPPCPAPEAAGAPSVFLFPPKPKDTLMISRTPEVTCVVVDVSHEDPEVKFNWYVDGVEVHNAKTKPREEQYNSTYRVVSVLTVLHQDWLNGKEYKCKVSNKALPAPIEKTISKAKGQPREPQVYTLPPCRDELTKNQVSLWCLVKGFYPSDIAVEWESNGQPENNYKTTPPVLDSDGSFFLYSKLTVDKSRWQQGNVFSCSVMHEALHNHYTQKSLSLSPGEPEA
In the case of B2, the “HEK-Blue IL-18: Abs 405 at 100 nM” value was determined as 1.5 Abs and the “HEK-Blue IL-18: Fold over Background” value was found to be 6.4 fold.

B3: DGL216 (bispecific antibody)
heavy 1: QVQLVESGGGLVQAGGSLRLSCAASGRTFSKHAMGWFRQAPGKEREFVAAIDWSGGSTYYADSVKGRFTISRDNAKNTVYLQMDSLKPEDTAVYYCAADSYTDYAQLWLPELESEYDYWGQGTLVTVSSDKTHTCPPCPAPEAAGAPSVFLFPPKPKDTLMISRTPEVTCVVVDVSHEDPEVKFNWYVDGVEVHNAKTKPREEQYNSTYRVVSVLTVLHQDWLNGKEYKCKVSNKALPAPIEKTISKAKGQPREPQVCTLPPSRDELTKNQVSLSCAVKGFYPSDIAVEWESNGQPENNYKTTPPVLDSDGSFFLVSKLTVDKSRWQQGNVFSCSVMHEALHNHYTQKSLSLSPGWSHPQFEK
heavy 2: QLQLVESGGGLVQAGGSLRLSCAASRSITFSHNVMGWYRQAPGKQRELVASIGSGGSTNYVDSVKGRATISRDNAKKTVYLQMNSLKPEDTAVYYCGVVVGVYRGSLGQGTLVTVSSGGGGSGGGGSGGGGSGGGGSCPPCPAPEAAGAPSVFLFPPKPKDTLMISRTPEVTCVVVDVSHEDPEVKFNWYVDGVEVHNAKTKPREEQYNSTYRVVSVLTVLHQDWLNGKEYKCKVSNKALPAPIEKTISKAKGQPREPQVYTLPPCRDELTKNQVSLWCLVKGFYPSDIAVEWESNGQPENNYKTTPPVLDSDGSFFLYSKLTVDKSRWQQGNVFSCSVMHEALHNHYTQKSLSLSPGEPEA
Take B3: the “HEK-Blue IL-18: Abs 405 at 100 nM” value is 0.8 Abs and the “HEK-Blue IL-18: Fold over Background” value came out at 3.4 fold.

B4: DGL215 (bispecific antibody)
heavy 1: QVQLVESGGGLVQAGGSLRLSCAASGRTFSKHAMGWFRQAPGKEREFVAAIDWSGGSTYYADSVKGRFTISRDNAKNTVYLQMDSLKPEDTAVYYCAADSYTDYAQLWLPELESEYDYWGQGTLVTVSSDKTHTCPPCPAPEAAGAPSVFLFPPKPKDTLMISRTPEVTCVVVDVSHEDPEVKFNWYVDGVEVHNAKTKPREEQYNSTYRVVSVLTVLHQDWLNGKEYKCKVSNKALPAPIEKTISKAKGQPREPQVCTLPPSRDELTKNQVSLSCAVKGFYPSDIAVEWESNGQPENNYKTTPPVLDSDGSFFLVSKLTVDKSRWQQGNVFSCSVMHEALHNHYTQKSLSLSPGWSHPQFEK
heavy 2: QLQLVESGGGLVQAGGSLRLSCAASRSITFSHNVMGWYRQAPGKQRELVASIGSGGSTNYVDSVKGRATISRDNAKKTVYLQMNSLKPEDTAVYYCGVVVGVYRGSLGQGTLVTVSSPLAPCPPCPAPEAAGAPSVFLFPPKPKDTLMISRTPEVTCVVVDVSHEDPEVKFNWYVDGVEVHNAKTKPREEQYNSTYRVVSVLTVLHQDWLNGKEYKCKVSNKALPAPIEKTISKAKGQPREPQVYTLPPCRDELTKNQVSLWCLVKGFYPSDIAVEWESNGQPENNYKTTPPVLDSDGSFFLYSKLTVDKSRWQQGNVFSCSVMHEALHNHYTQKSLSLSPGEPEA
Turning to B4, the “HEK-Blue IL-18: Abs 405 at 100 nM” value worked out at 1.4 Abs and the “HEK-Blue IL-18: Fold over Background” value turned out to be 6.1 fold.

B5: DGL214 (bispecific antibody)
heavy 1: QVQLVESGGGLVQAGGSLRLSCAASGRTFSKHAMGWFRQAPGKEREFVAAIDWSGGSTYYADSVKGRFTISRDNAKNTVYLQMDSLKPEDTAVYYCAADSYTDYAQLWLPELESEYDYWGQGTLVTVSSDKTHTCPPCPAPEAAGAPSVFLFPPKPKDTLMISRTPEVTCVVVDVSHEDPEVKFNWYVDGVEVHNAKTKPREEQYNSTYRVVSVLTVLHQDWLNGKEYKCKVSNKALPAPIEKTISKAKGQPREPQVCTLPPSRDELTKNQVSLSCAVKGFYPSDIAVEWESNGQPENNYKTTPPVLDSDGSFFLVSKLTVDKSRWQQGNVFSCSVMHEALHNHYTQKSLSLSPGWSHPQFEK
heavy 2: not shown
B5: the “HEK-Blue IL-18: Abs 405 at 100 nM” value is 1.1 Abs and the “HEK-Blue IL-18: Fold over Background” value came to 4.7 fold.

B6: DGL218 (bispecific antibody)
heavy 1: QVQLVESGGGLVQAGGSLRLSCAASGRTFSKHAMGWFRQAPGKEREFVAAIDWSGGSTYYADSVKGRFTISRDNAKNTVYLQMDSLKPEDTAVYYCAADSYTDYAQLWLPELESEYDYWGQGTLVTVSSCPPCPAPEAAGAPSVFLFPPKPKDTLMISRTPEVTCVVVDVSHEDPEVKFNWYVDGVEVHNAKTKPREEQYNSTYRVVSVLTVLHQDWLNGKEYKCKVSNKALPAPIEKTISKAKGQPREPQVCTLPPSRDELTKNQVSLSCAVKGFYPSDIAVEWESNGQPENNYKTTPPVLDSDGSFFLVSKLTVDKSRWQQGNVFSCSVMHEALHNHYTQKSLSLSPGWSHPQFEK
heavy 2: not shown
As to B6, the “HEK-Blue IL-18: Abs 405 at 100 nM” value was found to be 1.3 Abs and the “HEK-Blue IL-18: Fold over Background” value was 5.5 fold.

B7: DGL211 (bispecific antibody)
heavy 1: QVQLVESGGGLVQAGGSLRLSCAASGRTFSKHAMGWFRQAPGKEREFVAAIDWSGGSTYYADSVKGRFTISRDNAKNTVYLQMDSLKPEDTAVYYCAADSYTDYAQLWLPELESEYDYWGQGTLVTVSSEKSYGPPCPPCPAPEAAGAPSVFLFPPKPKDTLMISRTPEVTCVVVDVSHEDPEVKFNWYVDGVEVHNAKTKPREEQYNSTYRVVSVLTVLHQDWLNGKEYKCKVSNKALPAPIEKTISKAKGQPREPQVCTLPPSRDELTKNQVSLSCAVKGFYPSDIAVEWESNGQPENNYKTTPPVLDSDGSFFLVSKLTVDKSRWQQGNVFSCSVMHEALHNHYTQKSLSLSPGWSHPQFEK
heavy 2: QLQLVESGGGLVQAGGSLRLSCAASRSITFSHNVMGWYRQAPGKQRELVASIGSGGSTNYVDSVKGRATISRDNAKKTVYLQMNSLKPEDTAVYYCGVVVGVYRGSLGQGTLVTVSSEKSYGPPCPPCPAPEAAGAPSVFLFPPKPKDTLMISRTPEVTCVVVDVSHEDPEVKFNWYVDGVEVHNAKTKPREEQYNSTYRVVSVLTVLHQDWLNGKEYKCKVSNKALPAPIEKTISKAKGQPREPQVYTLPPCRDELTKNQVSLWCLVKGFYPSDIAVEWESNGQPENNYKTTPPVLDSDGSFFLYSKLTVDKSRWQQGNVFSCSVMHEALHNHYTQKSLSLSPGEPEA
Regarding B7, the “HEK-Blue IL-18: Abs 405 at 100 nM” value is 1.5 Abs and the “HEK-Blue IL-18: Fold over Background” value is 6.7 fold.

B8: DGL217 (bispecific antibody)
heavy 1: QVQLVESGGGLVQAGGSLRLSCAASGRTFSKHAMGWFRQAPGKEREFVAAIDWSGGSTYYADSVKGRFTISRDNAKNTVYLQMDSLKPEDTAVYYCAADSYTDYAQLWLPELESEYDYWGQGTLVTVSSDKTHTCPPCPAPEAAGAPSVFLFPPKPKDTLMISRTPEVTCVVVDVSHEDPEVKFNWYVDGVEVHNAKTKPREEQYNSTYRVVSVLTVLHQDWLNGKEYKCKVSNKALPAPIEKTISKAKGQPREPQVCTLPPSRDELTKNQVSLSCAVKGFYPSDIAVEWESNGQPENNYKTTPPVLDSDGSFFLVSKLTVDKSRWQQGNVFSCSVMHEALHNHYTQKSLSLSPGWSHPQFEK
heavy 2: QLQLVESGGGLVQAGGSLRLSCAASRSITFSHNVMGWYRQAPGKQRELVASIGSGGSTNYVDSVKGRATISRDNAKKTVYLQMNSLKPEDTAVYYCGVVVGVYRGSLGQGTLVTVSSEKSYGPPCPPCPAPEAAGAPSVFLFPPKPKDTLMISRTPEVTCVVVDVSHEDPEVKFNWYVDGVEVHNAKTKPREEQYNSTYRVVSVLTVLHQDWLNGKEYKCKVSNKALPAPIEKTISKAKGQPREPQVYTLPPCRDELTKNQVSLWCLVKGFYPSDIAVEWESNGQPENNYKTTPPVLDSDGSFFLYSKLTVDKSRWQQGNVFSCSVMHEALHNHYTQKSLSLSPGEPEA
Regarding B8, the “HEK-Blue IL-18: Abs 405 at 100 nM” value came to 1.3 Abs and the “HEK-Blue IL-18: Fold over Background” value came out at 5.6 fold.
